Values quoted from earlier work as cited in PMC3909715.
Read-outs that look alike come from different tables or passages of the source.

Assays:
Cys34 [1] = biological target: T1, Cys34 (UniProt position 58, QYLQQCPFEDH); assay: chemical modification; details: reduced thiol; ligand state not stated
Cys34 [2] = biological target: T1, Cys34; assay: kinetics; details: reduced thiol
Cys34 [3] = biological target: T1, Cys34; details: reduced thiol (HSA-SH); ligand state not stated

For “Human serum albumin (HSA) (Homo sapiens)”, the pKa (Cys34 [1]) is listed as “about 8”, the pKa (Cys34 [2]; ligand-free (fatty acid-free) HSA) is listed as 7.9±0.1 and the pKa (Cys34 [2]; ligand state not stated) is listed as “about 8”. For the same substance, the pKa (Cys34 [3]) was under 7.
